{"source": "the nanobody polyreactivity screen of Harvey et al. (2022)", "assay": "yeast display, Sf9 membrane polyspecificity reagent, FACS + sequencing; frameworks hold sequencing errors", "in_short": "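Sorting gates, low and high (top ~1%), were placed on anti-HA fluorescence to track expression and on streptavidin fluorescence to track reagent binding. A clone's polyreactivity label is taken from the gate it came out of. The reagent was 10% biotinylated, detergent-solubilized Sf9 membrane, applied for 1 hour at 4 °C to galactose-induced yeast display cells.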", "data": [{"sequence": "QVQLVESGGGLVQAGGSLRLSCAASGSTFKYYAMGWYRQAPGKERELVAAISYRGGRTYYADSVKGRFTISRDNAKNTVNLQMNSLKPEDTAVYYCAAVKPYYIQYQGSAGYDYWGQGTQVTVSS", "values": [{"measurement": "polyreactivity (PSR sort gate)", "value": "high polyreactivity"}]}, {"sequence": "QVQLVESGGGIVQAGGSLRLSCAASGSTFVDNAMGWYRQAPGKERELVAAITTSVGSTYYADSVKGRFTISRDNAKNTVYLQMNSLKPEDTAVYYCAATVFSTYPYGYGSTFVRDDYWGQGTQVTVSS", "values": [{"measurement": "polyreactivity (PSR sort gate)", "value": "low polyreactivity"}]}, {"sequence": "QVQLVESGGGLVQAGGSLRLSCAASVIIFNLYAMGWYRQAPGKERELVAAISWSGGSTYYADSVKGRFTISRDNAKNTVYLQMNSLKPEDPAVYYCATSFLYPYFDEDDYWGQGTQVTVSS", "values": [{"measurement": "polyreactivity (PSR sort gate)", "value": "high polyreactivity"}]}, {"sequence": "QDQLVESGGGLVQAGGSLRLSCAATGSIFGFNTMGWYRQAPGKERELVPTINWRGGRTYYADSVKGRFTISRDNAKNTVYLLMNSLKPEDTAVYYFNTQGLAGQYQEHGYWGQGTQVTVSS", "values": [{"measurement": "polyreactivity (PSR sort gate)", "value": "high polyreactivity"}]}, {"sequence": "QVQLVESGGGLVQAGGSLRLSCAATGSIFPANVMGWYRQAPGKERELVASINSGDDTNYADSVKGRFTISRDNAKNTVYLQMNSLKPEDTAVYYCATGDWYPYGDYIYDYWGQGTQVTVSS", "values": [{"measurement": "polyreactivity (PSR sort gate)", "value": "low polyreactivity"}]}, {"sequence": "QVQVVESGGGIVHAGGSLRLSCAASGFIFLVNGMVWYRQAPGKERELVAAISFDGGSTYADSVKGRFTISRDNAKNTVYLLMTSLKPEDTAVFYCATDVRGVDGEDYSWGQGTQVTVSS", "values": [{"measurement": "polyreactivity (PSR sort gate)", "value": "low polyreactivity"}]}, {"sequence": "QVQLVDSGGGLVQAGGSLRLSCAASASTFEYYTMGWYRHAPGKERQLVASIRSSGTSTYYADCVKGRFTISRDNAKNTVYLQMNSLKPEDTAVSYWAATVLSIYVSSYGFWGQGTQVTVSS", "values": [{"measurement": "polyreactivity (PSR sort gate)", "value": "high polyreactivity"}]}, {"sequence": "QVQLVESGGGLVQAGGSLRLSCAASGSTFVLYAMGWYRQAPGKERELVAAINSAGSTNYADSVKGRFTISRDNAKNTVYLQMNSLNPEDTAVYYCAAEYYYSYVDRTYYIYDYWGQGTQVTVSS", "values": [{"measurement": "polyreactivity (PSR sort gate)", "value": "high polyreactivity"}]}, {"sequence": "QVQLVESGGGLVQAGGSLRLSCAASGITFYVYTMGWYRQAPGKERELVAAINGSGGSTNYADSVKGRFTISRDNAKNTVYLLMNSLKPEDTAVYYCAADWSLRLYDYWGQGTQVTVSS", "values": [{"measurement": "polyreactivity (PSR sort gate)", "value": "low polyreactivity"}]}, {"sequence": "QVQLVESGGGLVQAGGSLRLSCAASGSIFIRNAKGWYRQAPGKERELVAAISTIGGRTYYADSVKGRFTISRDNAKNTVYLQMNSLKPEDTAVYYCAAEQGTPSTNWYDYWGQGTQVTVSS", "values": [{"measurement": "polyreactivity (PSR sort gate)", "value": "low polyreactivity"}]}, {"sequence": "QVQLVESGGGLVQAGGSLRLSCAASGITYPGYAMGWYRQAPGKERELVAVIRKSGTSTYYADSVKGRFTISRDNAKNTVYLQMNSLKPEDTAVYYCAAGGPSTLDDYWGQGTQVTVSS", "values": [{"measurement": "polyreactivity (PSR sort gate)", "value": "low polyreactivity"}]}, {"sequence": "QVQLVESGGGLVQAGGSLRLSCAASGRTFYYYAMGWYRQAPGKERELVASITYYADSVKGRFTISRDNAKNTVYLQMNSLKPEDTAVYYCAAEHKYRYDYWGQGTQVTVSS", "values": [{"measurement": "polyreactivity (PSR sort gate)", "value": "low polyreactivity"}]}, {"sequence": "QVQLVESGGGLVQAGGSLRLSCAASGFTFSLYAMGWYRQAPGKERELVARISDSGGGTYYADSVKGRFTISRDNAKNTVYLQMNSLKPEDTAVYYCAAVSVWYVTSTSYRYWRYDYWGQGTQVTVSS", "values": [{"measurement": "polyreactivity (PSR sort gate)", "value": "high polyreactivity"}]}, {"sequence": "QVQLVESGGGLVQAGGSLRLSCAASGSTFRQNAMGWYRQAPGKERELVAAISGTAGSTYYADSVKGRFTISRDNAKNTVYLQMNSLKPEDTAVYYCAKRKITKYGYGYWGQGTQVTVSS", "values": [{"measurement": "polyreactivity (PSR sort gate)", "value": "high polyreactivity"}]}, {"sequence": "QVQLVESGGGLVQAGGSLRLSCAASGRTFYYYAMGWYRQAPGKERELVAGITATGSSTYYADSVKGRFTISRDNAKYTVYLQMNSLKPEDTAVYYCAADGYRIDVYHADYRYDYWGQGTQVTVSS", "values": [{"measurement": "polyreactivity (PSR sort gate)", "value": "low polyreactivity"}]}, {"sequence": "QVQLVESGGGLVQAGGSLRLSCAASGSTFDYYAMGWYRQAPGKERELVAAISRTGGRTYYADSVKGRFTISRDNAKNTVYLQMNSLKPEDTAVYYCATRNGRQYSVSYRYYYWGQGTQVTVSS", "values": [{"measurement": "polyreactivity (PSR sort gate)", "value": "low polyreactivity"}]}, {"sequence": "QVQLVESGVGLVQAGGSLRLSCAASGLTFPWYTMGWNRQAPGKERELVAAINSRGGSTYYADSVKGRFTISRDNAKNTVYLQMNRLKPVDTAVYYCATRSFGRMDYWGQGTQVTVSS", "values": [{"measurement": "polyreactivity (PSR sort gate)", "value": "high polyreactivity"}]}, {"sequence": "QVQLVESGGGLVQEGGSLRLSCAASGSIFGRNAMGWYRQAPGKERELVAAITSRTGSTFYADSVKGRFTISRDNAKNTDYLQMNSLKPEATAVYYCKAAGPAFSYYHWLWGDYNSWGQGTQVTVSS", "values": [{"measurement": "polyreactivity (PSR sort gate)", "value": "low polyreactivity"}]}, {"sequence": "QVQLVESGGGLVQAGGSLRLSCAASGRIFYYNAMGWYRPAPGKERELVAAITGDGTTDYADSVKGRFTISRDNAKNTVYLQMNSLKPEDTAVYYCNAPFRYVPPEGSGPYDYWGQGTQVTVSS", "values": [{"measurement": "polyreactivity (PSR sort gate)", "value": "low polyreactivity"}]}, {"sequence": "QVHLVESGGGLVQAGGSLRLRCAASGSTFGYYAMGWYRQAPGKERELVAAIRGSVTRTYYADSVKGRFTISRDNAKNTVYLEMNSLKPEDTAVYYCAAGSRLGWGSEYWGQGTQVTVSS", "values": [{"measurement": "polyreactivity (PSR sort gate)", "value": "high polyreactivity"}]}, {"sequence": "QVQLVESGGGVVQAGGSLRLSCAASGRIFYYNARGWYRQAPGKERELVAVISRNGGRTYYADSVKGRFTISRDNAKITVYLQMNSLKPEDTAVYYCAARSAGDRYDYWGQGTQVTVSS", "values": [{"measurement": "polyreactivity (PSR sort gate)", "value": "high polyreactivity"}]}, {"sequence": "QVQLEESGGGLVQAGGSLRLSCAASGNIFVSYAMGWYRQAPGKERELVAAISKSGGSTYYADSVKGRFTISRDNAKNTVYLQMNSLKPEDTAVYYCAARWYNRVKYQKYNYWGQGTQVTVSS", "values": [{"measurement": "polyreactivity (PSR sort gate)", "value": "high polyreactivity"}]}, {"sequence": "QVQLVESGGGLVQAGGSLRLSCAASGNTFPTNVMGWYRQAPGKERELVAAITRSGGTTYYADSVKGRFTISRDNAKNTVYLQMNSLKPEDTAVYYCAAGPTQGWGRGYWGQGTQVTVSS", "values": [{"measurement": "polyreactivity (PSR sort gate)", "value": "high polyreactivity"}]}, {"sequence": "QVQLVESGGGLVQAGCSLRLRCAASGFTFQYNGMGWYRQAPGKERELVAAINWSGGTTYYADSVKGRFTISRDNAKNTVYLLMNCLKPEDTAVYYCAKGYWRRYSPVGGLGYDYWGQGTQVSVSS", "values": [{"measurement": "polyreactivity (PSR sort gate)", "value": "high polyreactivity"}]}, {"sequence": "QVQLVESGGGLVQAGGSLRLSCAASGRTFYWYAMGWYRQAPGKERELVAAIRRSGGRTYYADSVKGRFTISRDNAKNTVYLQMNSLKPEDTAVYYCNVAYLRYPGPLDYWGQGTQVTVSS", "values": [{"measurement": "polyreactivity (PSR sort gate)", "value": "high polyreactivity"}]}, {"sequence": "QVQLVESGGGLVQAGGSIRLSCAASGSTFSHNAMGWYRQAPGKERELVAAIRWNGGSTYYADSVKGRFTISRDNAKNTVYLQMNSLKPEDTAVYYCAKENHYFTQGYGYWGQGTQVTVSS", "values": [{"measurement": "polyreactivity (PSR sort gate)", "value": "low polyreactivity"}]}, {"sequence": "QVQLVESGGGLVQAGGSLRLSCAAYGTIFFSYSMGWYRQAPGKERELVADIRSSDDDTYYADSVKGRFTISRDNAKNTGYLQMNSMKPEDTAVYYCNADFGYWWDGRRYDYWGQGTQVTVSS", "values": [{"measurement": "polyreactivity (PSR sort gate)", "value": "low polyreactivity"}]}, {"sequence": "QVQLVESGGGLVQAGGSLRLSCAASGSTFYRYAMGWYRQAPGKERELVAAISGSGGRTYYADSVKGRFTISRDNAKNTVYLQMNSLKPEDTAVYYCATRFGQRSDYWGQGTQVTVSS", "values": [{"measurement": "polyreactivity (PSR sort gate)", "value": "high polyreactivity"}]}, {"sequence": "QVQLVESGGGLVQAGGSLRLSCAASGRTFANYAMGWYRQAPGKERELVAAITSGGRTYYADSVKGRFTISRDNAKNTVYLQMNSLKPEDTAVYYCAADYTYDYQNDYWGQGTQVTVSS", "values": [{"measurement": "polyreactivity (PSR sort gate)", "value": "high polyreactivity"}]}, {"sequence": "QVQLVESGGGLVQAGGSLRLSCAASGLTFIYNAMGWYRQAPGKERELVAAISGNGGDTYYADSVKGRFTISRDNAKNTVYIQMNSLKPEDTAVYYCAADYAYTPITWDEYWGQGTQVTVSS", "values": [{"measurement": "polyreactivity (PSR sort gate)", "value": "low polyreactivity"}]}, {"sequence": "QVQLVESGGGLVQAGGSLRLSCAASGSTFSGNAMGWYRQAPGKERELVAAITRSGSRTYYADSVKGRFTISRDNAKNTVYLQMNSLKPEDTAVYYCAKVGRTGDDYYYWGQGTQVTVAS", "values": [{"measurement": "polyreactivity (PSR sort gate)", "value": "high polyreactivity"}]}, {"sequence": "QVQLVESGGALVQAGGSLRLSCSASGSTLPGYAMVWYRQAPGKERELVAGISTRGGNTYYADSVKGRFTISRDNAKNTVYGQLNSLNPEDTAVYYCATTSSWRYGYWGEGTQVTVSS", "values": [{"measurement": "polyreactivity (PSR sort gate)", "value": "high polyreactivity"}]}]}
